Substitutions are numbered along the chain they refer to.

This assay has as its target T1, TFR1 (human source) (human, UniProt P02786 89-760, limits assumed).
T1 construct: Soluble reagent added at 2 µg/mL to ferritin-coated ELISA plates; also called Tfr1 receptor; Tfr-1 receptor
Nature of the assay: ELISA, ferritin coated, human TFR1 2 µg/mL. In general terms: An ELISA detects its analyte on a solid surface through an enzyme-linked reagent.

T1 sequence (P02786 89-760 limits assumed): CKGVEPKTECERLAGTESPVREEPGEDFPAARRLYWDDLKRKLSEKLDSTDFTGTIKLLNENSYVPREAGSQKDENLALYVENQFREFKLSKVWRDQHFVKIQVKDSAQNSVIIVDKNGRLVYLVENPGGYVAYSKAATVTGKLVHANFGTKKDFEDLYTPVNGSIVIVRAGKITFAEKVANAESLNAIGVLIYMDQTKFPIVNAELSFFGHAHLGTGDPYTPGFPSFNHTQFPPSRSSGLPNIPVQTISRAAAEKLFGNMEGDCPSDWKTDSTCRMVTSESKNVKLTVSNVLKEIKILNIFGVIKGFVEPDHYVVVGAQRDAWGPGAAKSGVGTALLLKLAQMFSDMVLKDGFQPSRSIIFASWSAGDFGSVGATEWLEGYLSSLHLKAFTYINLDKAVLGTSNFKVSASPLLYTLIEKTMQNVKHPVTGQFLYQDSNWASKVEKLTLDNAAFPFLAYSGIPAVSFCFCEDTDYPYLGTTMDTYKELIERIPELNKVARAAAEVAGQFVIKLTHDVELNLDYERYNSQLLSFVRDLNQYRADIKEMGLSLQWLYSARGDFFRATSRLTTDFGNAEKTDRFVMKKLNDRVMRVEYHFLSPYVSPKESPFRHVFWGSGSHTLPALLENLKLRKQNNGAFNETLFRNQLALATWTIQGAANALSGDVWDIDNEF

B1: HFn-Mt-3 (ligand)
chain: TTASTSQVRQNYHQDSEAAINRQINLELYASYVYLSMSYYFDRDDVALKNFAKYFLHQSHEEREHAEKLMKLQNQRGGRICLQDIKKPDSDDWESGLNAMESALHLEKNVNQSLLELHKLATDKNDPHLSDFIETHYLNEQVKAIKELGDHVTNLRKMGAPESGLAEYLFDKHTLGDSDNES
notes: cage protein; also called HFn-Mut-3
As to B1, the binding result is “no binding”.

B2: HFn-Mt-5 (ligand)
chain: B1 chain with C81F, Q83C
notes: cage protein; also called HFn-Mut-5
Regarding B2, the binding result is given as “no binding”.

For the origin of these results see US20230203111A1 (published 2023).
